Measurements: the supplement of paper PMC10567573

B1: CCDC6 (parent)
chain: ASVTIQARAEQEEEFISNTLFKKI
B2: ZNF449 (parent)
chain: CTHCSKSFRQRAGLIMHQVTHFRG

Variants of: B1
Assay: protein stability index of a GFP-peptide fusion (GPS, HEK-293T) (PSI 1-6); higher = more stable
Details: c terminus: a fixed tail appended
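Further: lentivirally expressed fusions sorted by FACS into six bins by GFP to DsRed ratio, PSI derived from sequencing read proportions per bin multiplied by bin number.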

Protein stability index of substitutions, site by site:
A7: V 2.8 | Y 2.8 | C 2.45 | G 3.66 | D 4.31 | R 3 | L 2.12 | F 1.98 | H 3.6 | M 2.67 | Q 3.93 | N 3.69 | T 3.85 | I 1.93 | S 3.9 | E 4.49 | K 3.69 | W 2.74 | P 3.67
R8: S 4.05 | V 3.31 | Q 4.14 | L 3.03 | N 3.69 | E 4.55 | I 2.98 | T 3.58 | M 3.12 | D 4.23 | K 3.79 | G 4.13 | A 3.79 | W 3.27 | Y 3.21 | C 3.27 | H 3.78 | P 4 | F 2.59
E12: N 3.06 | G 2.94 | W 2.21 | Q 3.27 | V 2.19 | C 2.35 | F 2.12 | Y 2.2 | R 2.7 | P 3.03 | T 2.68 | A 2.58 | H 2.83 | D 3.67 | M 1.9 | S 2.95 | L 2.07 | K 3.17 | I 1.69
I5: S 4.24 | R 4.44 | L 3.84 | G 4.75 | W 3.66 | M 4.29 | F 3.96 | H 4.32 | T 4.28 | P 4.7 | D 4.84 | K 4.65 | E 4.58 | A 4.34 | Y 3.73 | Q 5.03 | C 4.5 | N 4.49 | V 4
V3: K 4.33 | M 3.5 | W 3.32 | T 4.57 | Y 3.42 | D 4.89 | S 4.38 | Q 4.42 | R 3.9 | I 3.09 | N 4.6 | A 4.51 | H 4.1 | C 1.9 | F 3.44 | P 4.5 | E 4.86 | L 3.84 | G 4.44
E14: L 1.89 | V 2.7 | R 2.52 | T 2.87 | H 2.7 | I 2.22 | M 2.99 | A 3.13 | S 2.79 | Y 2.31 | Q 2.99 | W 1.81 | P 3.01 | F 1.87 | N 2.95 | G 3.02 | D 3.31 | C 2.08 | K 3.2
A9: R 3.61 | P 3.87 | F 2.37 | C 3.23 | T 3.68 | G 3.67 | I 2.62 | Y 2.72 | E 4.16 | M 3.08 | N 3.63 | W 2.27 | S 3.79 | V 2.91 | D 4.42 | H 3.17 | Q 4.09 | K 3.6 | L 2.5
F15: T 4.52 | N 4.65 | V 4.52 | C 4.19 | H 3.72 | R 4.09 | Q 4.46 | P 4.61 | S 4.03 | A 4.49 | L 3.73 | D 4.68 | I 4.18 | G 4.4 | M 3.67 | W 2.98 | E 4.69 | Y 3.78 | K 4.13
S2: F 2.11 | I 3.08 | K 3.38 | Y 2.19 | H 3.17 | V 2.73 | R 3.35 | W 2.37 | M 2.81 | N 3.99 | A 4.01 | L 2.32 | T 3.33 | C 2.84 | P 4.25 | D 4.58 | Q 3.71 | E 4.11 | G 3.92
Q11: V 2.56 | D 3.99 | I 2.39 | H 3.37 | A 3.52 | N 3.71 | M 2.29 | T 3.4 | S 3.75 | P 3.67 | G 3.49 | L 2.97 | F 2.07 | Y 2.91 | W 2.07 | C 2.97 | K 3.4 | E 4.13 | R 2.83
T4: N 3.98 | F 2.44 | K 3.29 | C 3.52 | Y 2.56 | I 3.33 | S 3.86 | W 2.06 | Q 3.74 | R 3.14 | L 3.21 | A 4.46 | G 3.63 | V 2.88 | D 4.17 | H 3.61 | M 3.2 | E 4.41 | P 4.32
E13: A 2.8 | H 2.29 | M 2.58 | K 3.71 | G 3.39 | L 2.38 | F 2.23 | I 2.18 | N 3.16 | Q 3.29 | Y 2 | T 3.08 | D 3.54 | V 2.41 | C 3.07 | W 2.08 | P 3.4 | R 3.18 | S 3.11
I16: A 3.84 | C 4.11
Q6: Y 1.94 | V 2.71 | N 3.75 | D 4.32 | W 2.94 | E 4.26 | C 2.81 | R 3.26 | A 3.47 | L 2.71 | F 2.89 | G 3.73 | S 3.35 | M 2.54 | T 3.53 | K 3.98 | I 1.97 | P 4.2 | H 3.49
A1: T 3.85 | K 3.68 | E 4.39 | F 2.08 | W 1.86 | Q 4.09 | Y 2.27 | D 4.27 | V 2.56 | H 3.85 | R 3.51 | C 3.07 | M 3.1 | N 3.78 | P 3.59 | S 3.75 | I 1.84 | G 3.98 | L 2.48
E10: W 1.54 | T 3.22 | I 2.39 | P 2.83 | G 2.38 | D 3.4 | A 3.06 | M 2.95 | V 2.27 | Y 2.03 | K 3.15 | F 2.29 | L 2.15 | N 3.1 | Q 3.22 | S 3.14 | C 2.1 | R 2.95 | H 3.25

Variants of: B2
Assay: as above
Details: c terminus: a fixed tail appended

Protein stability index: each site, then its substitutions
G24: Q 3.19 | D 3.59 | V 3.46 | W 3.25 | A 2.82 | L 3.55 | M 2.81 | S 2.33 | I 2.44 | F 2.68 | K 3.01 | Y 2.41 | N 2.91 | C 2.53 | P 3.29 | H 2.17 | T 2.69 | E 2.88 | R 2.29
R23: T 2.03 | H 1.62 | W 3.55 | M 2.44 | I 3.44 | C 2.56 | Y 2.36 | K 2.7 | D 2.49 | E 2.93 | P 2.69 | Q 2.6 | N 2.15 | F 3.33 | V 3.18 | A 2.97 | G 2.37 | S 2.07 | L 3.36
F22: S 2.2 | V 2.14 | Y 2.45 | P 1.58 | T 1.98 | W 1.08 | N 2.39 | Q 2.5 | R 3.58
